Measured values from patent US11046988B2, “Process for the modification of a glycoprotein using a β-(1,4)-N-acetylgalactosaminyl transferase or a mutant thereof” (Synaffix B.V., priority 2014, dated 2021).

B1: GalT(Y289L): β-(1,4)-galactosyltransferase mutant enzyme Bos taurus GalT-Y289L (SEQ ID NO: 1), prior-art comparator (protein)
chain: MKFREPLLGGSAAMPGASLQRACRLLVAVCALHLGVTLVYYLAGRDLRRLPQLVGVHPPLQGSSHGAAAIGQPSGELRLRGVAPPPPLQNSSKPRSRAPSNLDAYSHPGPGPGPGSNLTSAPVPSTTTRSLTACPEESPLLVGPMLIEFNIPVDLKLIEQQNPKVKLGGRYTPMDCISPHKVAIIILFRNRQEHLKYWLYYLHPMVQRQQLDYGIYVINQAGESMFNRAKLLNVGFKEALKDYDYNCFVFSDVDLIPMNDHNTYRCFSQPRHISVAMDKFGFSLPYVQLFGGVSALSKQQFLSINGFPNNYWGWGGEDDDIYNRLAFRGMSVSRPNAVIGKCRMIRHSRDKKNEPNPQRFDRIAHTKETMLSDGLNSLTYMVLEVQRYPLYTKITVDIGTPS
modifications: Bos Taurus GalT Y289L mutant

Assay: Coupled glycosyltransferase assay (R&D Systems Glycosyltransferase Activity Kit, malachite green, 620 nm): transfer of F2-GalNAz to GlcNAc
Format: biochemical
Parameters: Data from the determination of the specific activity: unit not given here
Settings: for Data from the determination of the specific activity: GlcNAc 20 mM, UDP-F2-GalNAz 500 μM, 20 min, room temperature, plate read at 620 nm; for specific activity: UDP-F2-GalNAz 500 μM to GlcNAc 20 mM, 5 mM MgCl2 and 5 mM MnCl2, pH 7.5, linear regression; for transferase activity compared with GalT(Y289L): transfer of F2-GalNAz from UDP-F2-GalNAz (18) to GlcNAc, FIG. 7 / FIG. 8
Excerpt: In brief, the glycosyltransferase kit determines the activity of a particular glycosyltransferase by means of a coupled assay that detects the release of liberated UDP upon transfer of the donor sugar (from the sugar-UDP nucleotide) to an acceptor sugar. In more detail, the UDP that is liberated upon transfer of sugar is hydrolyzed by a particular enzyme (CD39L3/rectonucleoside triphosphate diphosphohydrolase-3, also known as NTPDase-3) thereby generating UMP and one equivalent of phosphate (Pi). The latter phosphate in turn is detected by malachite green, which is also added to the mixture. A green color develops in proportion to the amount of inorganic phosphate released and the absorbance of the color at 620 nm is measured as a direct measure of the activity of the glycosyltransferase. In the present case, transfer of F2-GalNAz from the UDP-substrate to GlcNAc on the protein is accompanied by release of UDP, which is hydrolyzed by CD39L3 and the generated phosphate. Preferably, the derived or wild type β-(1,4)-GalNAcT enzyme used in the process according to the invention has at least 30%, 33%, 50%, 75%, 100%, 150%, 200%, or more preferably at least 300% of the UDP-F2-GalNAz transfer activity as compared to the UDP-F2-GalNAz transfer activity of the β-(1,4)-galactosyltransferase mutant enzyme Bos taurus GalT-Y289L (SEQ ID NO: 1), wherein the transfer activity is assessed using the R&D Systems Glycosyltransferase Activity Kit and applying the conditions as indicated in detail in Example 18 and using equal amounts of the enzyme to be tested and β-(1,4)-galactosyltransferase mutant enzyme Bos taurus GalT-Y289L (SEQ ID NO: 1).
Specific activity of enzymes was determined by a coupled glycosyltransferase procedure as described by Wu et al. in Glycobiology 2010, 21, 723-733, incorporated by reference, and commercially available as a kit from R&D system.
In short, a glycosyltransferase reaction was carried out in 50 μL of reaction buffer (25 mM Tris, 150 mM NaCl, 5 mM MgCl2 and 5 mM MnCl2, pH 7.5) in a 96-well plate at room temperature for 20 min. To determine the kinetic parameters of a glycosyltransferase, multiple reactions with varying amounts of the enzyme were carried out simultaneously (0.01, 0.02, 0.04, 0.06, 0.08, 0.10 and 0.12 μg of enzyme) in the presence of fixed amounts of all other components (GlcNAc: 20 mM, UDP-F2-GalNAz: 500 μM), including the coupling phosphatase 1 (ENTPD3/CD39L3) (2.5 μL of 20 ng/μL solution). A well containing all components except for the enzyme served as a blank control. The reactions were initiated by adding the substrates and phosphatase to the enzyme and terminated by the addition of 30 μL of Malachite reagent A and 100 μL of water to each well. The color was developed by the addition of 30 μL of Malachite reagent B to each well followed by gentle mixing and incubation at room temperature for 20 min. Following color development, the plate was read at 620 nm with a multi-well plate reader. A phosphate standard curve was also performed to determine the conversion factor between the absorbance and the inorganic phosphate contents. Preparation of UDP-F2-GalNAz is described in Example 13.
The specific activity of the GalNAcTs described herein were compared to GalT(Y289L), an enzyme known to transfer UDP-GalNAz as previously disclosed in WO 2007/095506 and WO 2008/029281 (both Invitrogen Corporation).
A graph depicting the conversion (in pmol/min/m) plotted against the amount of enzyme is shown in FIG. 7 (for Table 1) and FIG. 8 (for Table 2). From these plots specific activities were calculated by linear regression. […]

| Molecule | Data from the determination of the specific activity (0.01 μg enzyme) | Data from the determination of the specific activity (0.02 μg enzyme) | Data from the determination of the specific activity (0.04 μg enzyme) | Data from the determination of the specific activity (0.06 μg enzyme) | Data from the determination of the specific activity (0.08 μg enzyme) | Data from the determination of the specific activity (0.1 μg enzyme) | Data from the determination of the specific activity (0.12 μg enzyme) | specific activity | transferase activity compared with GalT(Y289L) |
| --- | --- | --- | --- | --- | --- | --- | --- | --- | --- |
| CeGalNAcT(I257A): truncated C. elegans GalNAcT mutant, isoleucine 257 to alanine, SEQ ID NO: 12 | 0.009 | 0.032 | 0.049 | 0.078 | 0.097 | 0.119 | 0.152 | 240 pmol/min/µg | significantly higher |
| CeGalNAcT(I257L): truncated C. elegans GalNAcT mutant, isoleucine 257 to leucine, SEQ ID NO: 10 | 0.02 | 0.038 | 0.081 | 0.136 | 0.153 | 0.205 | 0.245 | 381 pmol/min/µg | significantly higher |
| CeGalNAcT-His: CeGalNAcT(30-383) with C-terminal His6-tag, SEQ ID NO: 14 | 0.024 | 0.044 | 0.129 | 0.161 | 0.191 | 0.226 | 0.285 | 332 pmol/min/µg | significantly higher |
| B1 | 0.005 | 0.011 | 0.013 | 0.02 | 0.027 | 0.034 | 0.039 | 44 pmol/min/µg | – |
